# Experiments:
# [1] = target: N2 NA of the 1957 H2N2 pandemic isolate A/Japan/305/1957 (influenza A virus A/Japan/305/1957 (H2N2)); experiment: crystal structure
# [2] = target: N9 NA from the H7N9 epidemic isolate A/Hunan/02650/2016 (influenza A virus A/Hunan/02650/2016 (H7N9)); experiment: crystal structure
# [3] = target: N2 NA of the seasonal influenza virus strain A/Hong Kong/4801/2014 (H3N2) (influenza A virus A/Hong Kong/4801/2014 (H3N2))
substance,measurement,setting,value
N2 NA of the 1957 H2N2 pandemic isolate A/Japan/305/1957 (enzyme),stoichiometry N,[1],4
N9 NA from the H7N9 epidemic isolate A/Hunan/02650/2016 (enzyme),stoichiometry N,[2],4
antigen-binding fragment (Fab) of 1G01,IC50 of inhibition of NA activity of H3N2 A/Hong Kong/4801/2014 in ELLA (Fab),[3],7.62 nM

# From PMC7105897
